{"source": "patent US20250387497A1", "about": "“MULTIVALENT MULTISPECIFIC CONJUGATES AND RELATED COMPOSITIONS AND METHODS OF USE” (Purdue Research Foundation, priority 2022, published 2025)", "binders": {"B1": {"name": "peptide \"E\", binding motif for EGFR, … (peptide)", "peptide": "YHWYGYTPQNVI"}, "B2": {"name": "peptide \"H\", binding motif for Her2, … (peptide)", "peptide": "FCGDGFYACYMDV"}}, "key": {"[1]": {"target": "epidermal growth factor receptor (EGFR)", "assay": "binding affinity, method not stated"}, "[2]": {"target": "Her2 (human epidermal growth factor receptor 2)", "assay": "binding affinity, method not stated"}}, "note": "Where “and” joins values, the source holds several entries; their conditions need not be identical. Equal values may be shown once."}
{"binder": "B1", "values": [{"measurement": "Kd", "setting": "[1]", "result": 459000, "unit": "nM"}]}
{"binder": "B2", "values": [{"measurement": "Kd", "setting": "[2]", "result": "< 500 nM and 300 nM"}]}
